Where no end group is shown, it is not given here.

In this experiment the target is 2F5 mAb. The experiment can be described thus: cell-based or functional assay.

Turning to QQEKNEQELLELDKWASLWN (not fully specified) [SP62 peptide gp41 652-671, biotinylated], the IC50 of 2F5 mAb against TND-669S Env-pseudovirus after pre-absorption with 0.3 µM peptide is 0.911.
